From PMC3596498

Target: SciP (Caulobacter crescentus)

- half-life of purified SciP (0.5 µM) degraded by purified Lon (0.5 µM) in vitro: 12 min
B1: C. crescentus Lon (enzyme)
chain: MSELRTLPVLPLRDIVVFPHMVVPLFVGRDKSVRALEEVMRGDKQILLVTQKNSADDDPAPGDIFEVGVLATVLQLLKLPDGTVKVLVEGKARAAVVSFTDQESYYEAQIGEVSEDDGAGPEAEALSRAVVEQFENYVKLNKKVPPEALASIPQIAEPGKLADSIAAHLSVKIGDKQNLLEIFDVVKRLEKVFALMEGEISVLQVEKKIRSRVKRQMEKTQREYYLNEQMKAIQRELGDPDDARDELIDLEKRIKKTKLSKEARTKAESELKKLRNMSPMSAESTVVRNYLDWLLSIPWGKAKTKKIDLVESEGILDADHYGLEKVKERILEYLAVQARTNSLKGPILCLVGPPGVGKTSLGKSIAKATGREFVRMSLGGVRDEAEIRGHRRTYIGSMPGKVVQSMKKAKTTNAFVLLDEIDKMGSDYRGDPASALLEVLDPSQNSTFGDHYLEVDYDLSQVMFVTTANSLNMPQPLLDRMEIIRIPGYTEDEKLEIAKRHILPKLAKDHGLKPAEFIVPDKAIRDLIRYYTREAGVRSLERELGALARKTVRDLAREKVASITIDDERLAKYAGVKKYRYGETDEVDQVGIVTGLAWTEFGGDILTIEAVKMPGKGRMQITGNLKDVMKESIAAANSYVRSRALQFGIKPPVFEKTDVHIHVPDGATPKDGPSAGIAMALAMVSVLTGIPIRKDIAMTGEITLRGRVTAIGGLKEKLLAALRSGVKTVLIPQENEKDLADVPQTVKDGLEIIPVSTVDEVLKHALTGPLTPVEWNEAEEPITTSAKKDDGDSDAMLTH
